By Kd is commonly meant the constant that tells how readily two partners part at equilibrium. The low end stands for tighter binding, the high end for weaker binding. What is called koff is the first-order rate constant of dissociation. A low value points to slow dissociation. As a reminder, the kon is the second-order rate constant of association. Low readings indicate slower complex formation, high ones faster complex formation. By EC50 is commonly meant the concentration that produces a half-maximal response. Higher therefore signals lower potency in that assay.

In experiment [1] the target is T1, CLDN18.2.
T1 construct: For the EC50 it stood on overexpressing cells; also called claudin18.2; CLDN18.2过表达细胞
The experiment is described as follows: kinetics, method not stated.

Experiment [2] concerns the target T1, CLDN18.2. Description: flow cytometry on CLDN18.2-overexpressing cells, MFI fitted in GraphPad Prism.

B1: IMAB362 (antibody, V domains shown)
VH: QVQLQQPGAELVRPGASVKLSCKASGYTFTSYWINWVKQRPGQGLEWIGNIYPSDSYTNYNQKFKDKATLTVDKSSSTAYMQLSSPTSEDSAVYYCTRSWRGNSFDYWGQGTTLTVSS
VL: DIVMTQSPSSLTVTAGEKVTMSCKSSQSLLNSGNQKNYLTWYQQKPGQPPKLLIYWASTRESGVPDRFTGSGSGTDFTLTISSVQAEDLAVYYCQNDYSYPFTFGSGTKLEIKR
In experiment [1], B1 displayed a Kd of 4.17 nM, a koff of 0.00158 s⁻¹ and a kon of 378000 M⁻¹ s⁻¹. The EC50 in experiment [2] is 1.75 µg/mL.

B2: CLDN-BC-P1022-hH1 (antibody, V domains shown)
VH: QVQLVQSGGGLVQPGGSLRLSCAASGFTFSSYEMNWVRQAPGKGLEWVAYITGSGRTMYYADSVKGRITISRDNAKNSLYLQMNSLRAEDTAVYYCARYWNYAGGMDVWGQGTLVTVSS
VL: DIQMTQSPSSVSASVGDRVTITCRASQGISSWLAWYQQKPGKAPKLLIYAASSLQSGVPSRFSGSGSGTDFTLTISSLQPEDFATYYCQQANSFPLTFGGGTKVEIK
notes: detected with anti-human IgG Fc); P1022 is the only antibody of the application; also called CLN-P1022-hH1; 全人源抗体P1022
B2: in experiment [2], the EC50 is 0.12 µg/mL.

(Values after CN117567612A (CHINA RESOURCES BIOMEDICAL CO LTD, dated 2024).)
